Experimental data reported in patent publication US20200239579A1 (Genmab, published 2020).
One block for each binder: values may come before it.

Legend:
[1] = molecular target: T1, human PD-L2 (full length, on CHO cells) (human, UniProt Q9BQ51 20-273); assay: flow cytometry on CHO cells expressing human PD-L2
T1 construct: whole, on cells; also called CHO-PD-L2 cells
T1 sequence (looked up): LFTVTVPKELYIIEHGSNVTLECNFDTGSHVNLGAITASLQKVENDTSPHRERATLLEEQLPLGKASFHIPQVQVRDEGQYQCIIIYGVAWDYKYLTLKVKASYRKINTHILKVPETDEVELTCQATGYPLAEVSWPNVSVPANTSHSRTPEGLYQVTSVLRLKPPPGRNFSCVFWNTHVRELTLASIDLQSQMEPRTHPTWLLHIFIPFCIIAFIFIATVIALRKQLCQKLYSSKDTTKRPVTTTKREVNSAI
Protocol: (§1) Cells (3-5×10⁴ cells/well) were incubated in polystyrene 96-well round-bottom plates (Greiner bio-one, cat. no. 650101) with serial dilutions of antibodies (range 0.0001 to 10 μg/mL in 5-fold dilution steps) in 50 μL PBS/0.1% BSA/0.02% azide (staining buffer) at 4° C. for 30 min.
(§2) After washing twice in staining buffer, cells were incubated in 50 μL secondary antibody at 4° C. for 30 min. As a secondary antibody, R-Phycoerythrin (PE)-conjugated goat-anti-human IgG F(ab′)₂ (Cat. no. 109-116-098, Jackson ImmunoResearch Laboratories, Inc., West Grove, Pa.) diluted 1:500 in staining buffer, was used for all experiments. Next, cells were washed twice in staining buffer, re-suspended in 20 μL staining buffer and analyzed on an iQue screener (Intellicyt Corporation, USA). Binding curves were analyzed using non-linear regression (sigmoidal dose-response with variable slope) using GraphPad Prism V75.04 software (GraphPad Software, San Diego, Calif., USA).
A PE-conjugated PD-L2 specific antibody (Mylteni, clone MIH18; cat. no. 130-098-651) was used as positive control.

[2] = molecular target: T2, human PD-L1 (full length, on cells) (human, UniProt Q9NZQ7 19-290); assay: flow cytometry on PC3 cells, PE anti-human IgG secondary, MFI (PE)
T2 construct: The entry holds the signal peptide; also called CD274; B7H1
T2 sequence (Q9NZQ7 19-290 limits assumed): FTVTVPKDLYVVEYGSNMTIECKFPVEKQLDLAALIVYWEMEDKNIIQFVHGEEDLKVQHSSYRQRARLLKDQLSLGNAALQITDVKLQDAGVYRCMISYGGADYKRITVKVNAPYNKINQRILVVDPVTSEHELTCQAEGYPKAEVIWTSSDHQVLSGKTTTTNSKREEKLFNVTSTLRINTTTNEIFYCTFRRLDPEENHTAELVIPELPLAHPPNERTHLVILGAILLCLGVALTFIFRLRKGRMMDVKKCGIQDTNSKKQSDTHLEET
Protocol: as §1, §2

[3] = molecular target: T2, human PD-L1 (full length, on cells); assay: flow cytometry on MDA-MB-231 cells, PE anti-human IgG secondary, MFI (PE)
Protocol: as §1, §2

[4] = molecular target: T3, PDLoneECDHisCtag (human, UniProt Q9NZQ7 19-238); assay: BLI cross-block, second antibody on PDLoneECDHisCtag held by immobilised 338; bold = blocking
T3 construct: Expressed in HEK-293F cells; theoretical molecular weight 29 kDa; also called recombinant human PD-L1 ECD; human PD-L1 (BLI); not shown: C-terminal His-tag; C-tag
T3 sequence (Q9NZQ7 19-238, form in doubt): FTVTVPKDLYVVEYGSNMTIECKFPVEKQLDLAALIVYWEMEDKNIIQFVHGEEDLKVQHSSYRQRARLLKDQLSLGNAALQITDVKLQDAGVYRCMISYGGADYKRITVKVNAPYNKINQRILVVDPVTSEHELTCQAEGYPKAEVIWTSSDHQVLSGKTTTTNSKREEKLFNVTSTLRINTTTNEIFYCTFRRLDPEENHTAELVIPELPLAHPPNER
Protocol: (§3) Antibody cross-block testing was performed using biolayer interferometry (BLI) on an Octet HTX instrument (ForteBio). Antibodies (20 μg/ml in 10 mM sodium acetate buffer pH 6.0 (ForteBio)) were immobilized on Amine-Reactive 2nd Generation (AR2G) biosensors (ForteBio) according to the instructions of the manufacturer. After a baseline (50 s) in Sample Diluent (ForteBio), biosensors containing immobilized antibodies were loaded for 500 s with PDLoneECDHisCtag (100 nM or 2.7 μg/ml), after which the association response of a second antibody (10 μg/ml) was followed for 500 s. Biosensors were regenerated by using 3 times 5 s alternating exposures to 10 mM glycine pH 2.5 and Sample Diluent. The experiment was repeated with a new set of second antibodies starting from the baseline step. Each biosensor was used 6 times. The experiment was performed at 30° C. using a shaker speed of 1000 rpm. Data was analyzed using Data Analysis Software v9.0.0.12 (ForteBio). The Y-axis was aligned to the association step and Savitzky-Golay filtering was applied. The average buffer response was subtracted from the association response of the second antibody in order to correct for the dissociation of PDLoneECDHisCtag from the immobilized antibody. The corrected association responses were plotted in a matrix format.

[5] = molecular target: T3, PDLoneECDHisCtag; assay: BLI cross-block, second antibody on PDLoneECDHisCtag held by immobilised 321; bold = blocking
Protocol: as §3

[6] = molecular target: T4, cynomolgus monkey PD-L1 (full length, on CHO cells) (cynomolgus monkey (Macaca fascicularis), UniProt G7PSE7 19-290); assay: flow cytometry on CHO cells transfected with cynomolgus PD-L1, PE anti-human IgG secondary, MFI (PE)
T4 construct: whole, on cells; also called PDL1 Mf; cynomolgus PD-L1
T4 sequence (G7PSE7 entry or part of it): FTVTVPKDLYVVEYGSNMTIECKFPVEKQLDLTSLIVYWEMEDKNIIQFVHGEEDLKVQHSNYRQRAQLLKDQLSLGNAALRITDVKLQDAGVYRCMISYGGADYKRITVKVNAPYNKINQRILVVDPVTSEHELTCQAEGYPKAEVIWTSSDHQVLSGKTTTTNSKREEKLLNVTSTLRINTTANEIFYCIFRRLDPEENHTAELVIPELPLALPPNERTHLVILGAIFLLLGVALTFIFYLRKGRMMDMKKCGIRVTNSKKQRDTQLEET
Protocol: as §1, §2
Binding to CHO cells expressing cynomolgus PD-L1 was determined by flow cytometry using a method as described above.

[7] = molecular target: T3, PDLoneECDHisCtag; assay: BLI cross-block, second antibody on PDLoneECDHisCtag held by immobilised MEDI; bold = blocking
Protocol: as §3

[8] = molecular target: T3, PDLoneECDHisCtag; assay: BLI cross-block, second antibody on PDLoneECDHisCtag held by immobilised MPDL; bold = blocking
Protocol: as §3

[9] = molecular target: T3, PDLoneECDHisCtag; assay: BLI cross-block, second antibody on PDLoneECDHisCtag held by immobilised 516; plain = non-blocking
Protocol: as §3

[10] = molecular target: T5, cynomolgus PD-L1/137-H1 protein (Acro Biosystems, cat. No. PD1-052H4-100) (cynomolgus, UniProt G7PSE7 19-239); assay: BLI (Octet HTX), average of 3 experiments; antibody on AHC sensor, cynomolgus PD-L1 protein (Acro Biosystems) as analyte
T5 construct: also called cynomolgus PD-L1 (BLI)
T5 sequence (G7PSE7 entry or part of it): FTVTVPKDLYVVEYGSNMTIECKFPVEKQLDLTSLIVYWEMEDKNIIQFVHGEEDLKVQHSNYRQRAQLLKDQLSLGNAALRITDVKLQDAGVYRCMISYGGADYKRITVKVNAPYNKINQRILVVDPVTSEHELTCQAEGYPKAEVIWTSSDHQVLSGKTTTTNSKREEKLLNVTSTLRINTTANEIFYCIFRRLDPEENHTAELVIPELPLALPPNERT

- binding result [1]: no binding
- EC50 (read off the curve) [2]: ~0.04 µg/mL
- EC50 (read off the curve) [3]: ~0.06 µg/mL
- association response of the second antibody [4]: 0 nm
- association response of the second antibody [5]: 0 nm
- EC50 (read off the curve) [6]: ~0.02 µg/mL
- association response of the second antibody [7]: 0 nm
- association response of the second antibody [8]: 0 nm
- association response of the second antibody [9]: 0.8 nm
- Kd [10]: 0.27 nM
- koff [10]: 0.00012 s⁻¹
- kon [10]: 440000 M⁻¹ s⁻¹
B1: IgG1-547-FEAR (antibody, V domains shown)
VH: EVQLLEPGGGLVQPGGSLRLSCEASGSTFSTYAMSWVRQAPGKGLEWVSGFSGSGGFTFYADSVRGRFTISRDSSKNTLFLQMSSLRAEDTAVYYCAIPARGYNYGSFQHWGQGTLVTVSS
VL: SYVLTQPPSVSVAPGQTARITCGGNNIGSKSVHWYQQKPGQAPVLVVYDDNDRPSGLPERFSGSNSGNTATLTISRVEAGDEADYYCQVWDSSSDHVVFGGGTKLTVLG

- binding result [1]: no binding
- EC50 (read off the curve) [2]: ~0.03 µg/mL
- EC50 (read off the curve) [3]: ~0.06 µg/mL
- association response of the second antibody [4]: 0 nm
- association response of the second antibody [5]: 0 nm
- EC50 (read off the curve) [6]: ~0.01 µg/mL
- association response of the second antibody [7]: 0 nm
- association response of the second antibody [8]: 0 nm
- association response of the second antibody [9]: 1.1 nm
- Kd [10]: 0.73 nM
- koff [10]: 0.00028 s⁻¹
- kon [10]: 390000 M⁻¹ s⁻¹
B2: IgG1-338-FEAR (antibody, V domains shown)
VH: EVQVVESGGGLVQPGGSLRLSCAASGFTFSRFWMSWVRQAPGKGLEWVANIKQDGGEKYYVDSVKGRFTISRDNAKNSLYLQMNSLRGEDTAVYYCARDDNWNGHFDYWGQGTLVTVSS
VL: DIQMTQSPSTLSASVGDRVTITCRASQSISSWLAWYQQKPGKAPNLLIYKASSLESGVPSRFSGSGSGTEFTLTISSLQPDDFATYYCQQYYGSYITFGQGTRLEIKR

- binding result [1]: no binding
- EC50 (read off the curve) [2]: ~0.01 µg/mL
- EC50 (read off the curve) [3]: ~0.04 µg/mL
- association response of the second antibody [4]: 0 nm
- association response of the second antibody [5]: 0 nm
- EC50 (read off the curve) [6]: ~0.02 µg/mL
- association response of the second antibody [7]: 0 nm
- association response of the second antibody [8]: 0 nm
- association response of the second antibody [9]: 1.1 nm
- Kd [10]: 12 nM
- koff [10]: 0.0052 s⁻¹
- kon [10]: 450000 M⁻¹ s⁻¹
B3: IgG1-511-LC33S-FEAR (antibody, V domains shown)
VH: QVQLVQSGSELKKPGASVMVSCKASGYTFTSYVMNWVRQAPGQGLEWMGWINSYTGNPTSAQGFTGRFVFSFDTSVNTAYLQISSLKAEDTAVYYCARGYCTSTSCYLDYWGQGTLVTVSS
VL: SYELTQPPSVSVSPGHTARITCSGDALPKKYASWFQQKSGQAPVLVIYEDSKRPSGIPERFSGSTSGTMATLTISGAQVEDETDYYCYSADTSGTHRVFGGGTKLTVLG
